According to patent US5889151A (priority 1989, dated 1999):

B1: Human gamma IFN: human gamma interferon, recognized by a different receptor (protein, UniProt P01579 24-161, looked up)
Interferon gamma: QDPYVKEAENLKKYFNAGHSDVADNGTLFLGILKNWKEESDRKIMQSQIVSFYFKLFKNFKDDQSIQKSVETIKEDMNVKFFNSNKKKRDDFEKLTNYSVTDLNVQRKAIHELIQVMAELSPAAKTGKRKRSQMLFRG

Tests used:
rhinoviruses = details: clinical trials; cited from earlier work
coronavirus = details: infected with a coronavirus; 37% with placebo; cited from earlier work
transfected 10B H7 clone = type: cell-based, mouse
human Wish cells = type: cell-based
mouse parental BTG cells = type: cell-based

Molecule | protection of volunteers infected with different rhinoviruses (rhinoviruses) [%] | volunteers developing the symptoms of a cold (coronavirus) [%] | Antiviral activities of interferon preparations tested on 10BH7 (transfected 10B H7 clone) | antiviral activity (in words) (transfected 10B H7 clone) | Antiviral activities of interferon preparations tested on WISH (human Wish cells) | Antiviral activities of interferon preparations tested on BTG (mouse parental BTG cells) | antiviral activity (in words) (mouse parental BTG cells)
alpha interferon | 100 | 6 | – | – | – | – | –
B1 | – | – | < 1 × 10^3 units/ml | no antiviral activity | 20 × 10^6 units/ml | < 1 × 10^3 units/ml | no antiviral activity
